According to PMC5764952 (2018):

B1: Untagged murine saposin A (SapA) [mouse] / His6-tagged murine β-galactocerebrosidase (GALC) [modified: glycosylated; glycosylated] [mouse] (parent)
chain 1: MGKSLPCDICKTVVTEAGNLLKDNATQEEILHYLEKTCEWIHDSSLSASCKEVVDSYLPVILDMIKGEMSNPGEVCSALNLCQSLQE
chain 2: YVLDDSDGLGREFDGIGAVSGGGATSRLLVNYPEPYRSEILDYLFKPNFGASLHILKVEIGGDGQTTDGTEPSHMHYELDENYFRGYEWWLMKEAKKRNPDIILMGLPWSFPGWLGKGFSWPYVNLQLTAYYVVRWILGAKHYHDLDIDYIGIWNERPFDANYIKELRKMLDYQGLQRVRIIASDNLWEPISSSLLLDQELWKVVDVIGAHYPGTYTVWNAKMSGKKLWSSEDFSTINSNVGAGCWSRILNQNYINGNMTSTIAWNLVASYYEELPYGRSGLMTAQEPWSGHYVVASPIWVSAHTTQFTQPGWYYLKTVGHLEKGGSYVALTDGLGNLTIIIETMSHQHSMCIRPYLPYYNVSHQLATFTLKGSLREIQELQVWYTKLGTPQQRLHFKQLDTLWLLDGSGSFTLELEEDEIFTLTTLTTGRKGSYPPPPSSKPFPTNYKDDFNVEYPLFSEAPNFADQTGVFEYYMNNEDREHRFTLRQVLNQRPITWAADASSTISVIGDHHWTNMTVQCDVYIETPRSGGVFIAGRVNKGGILIRSATGVFFWIFANGSYRVTADLGGWITYASGHADVTAKRWYTLTLGIKGYFAFGMLNGTILWKNVRVKYPGHGWAAIGTHTFEFAQFDNFRVEAAR

Variants of: B1
Assay: pull-down (immobilised GALC, Coomassie SDS-PAGE, quantified)
Conditions: with His6-tagged murine β-galactocerebrosidase (GALC) [modified: glycosylated, in the presence of Tween-20, n = 3, read off a plot

Q: Which ratio to parent does the source give for chain 1 N24Y here?
A: 1.3
